Measured values from patent publication US20190352367A1 (CLEVELAND CLINIC FOUNDATION, published 2019).
One block for each binder: values may come before it.

How the values were obtained:
[1] = molecular target: T1, Focal Adhesion Kinase (FAK), SPR ligand (UniProt Q05397 1-1052, limits assumed); experiment: SPR, peptide as analyte, FAK as ligand
T1 construct: the FAK preparation is not described

[2] = molecular target: T2, Nanog transcription factor (NANOG), SPR ligand (UniProt Q9H9S0 1-305, limits assumed); experiment: SPR, peptide as analyte, NANOG as ligand
T2 construct: the NANOG preparation is not described

[3] = molecular target: Connexin 26 (Cx26), endogenous or overexpressed in breast cell lysates (UniProt P29033 1-226); experiment: reciprocal co-immunoprecipitation (anti-Cx26, anti-FAK) from bulk MCF7 and MCF10A lysates, western blot; non-immune IgG as control

T2 sequence (Q9H9S0 whole entry): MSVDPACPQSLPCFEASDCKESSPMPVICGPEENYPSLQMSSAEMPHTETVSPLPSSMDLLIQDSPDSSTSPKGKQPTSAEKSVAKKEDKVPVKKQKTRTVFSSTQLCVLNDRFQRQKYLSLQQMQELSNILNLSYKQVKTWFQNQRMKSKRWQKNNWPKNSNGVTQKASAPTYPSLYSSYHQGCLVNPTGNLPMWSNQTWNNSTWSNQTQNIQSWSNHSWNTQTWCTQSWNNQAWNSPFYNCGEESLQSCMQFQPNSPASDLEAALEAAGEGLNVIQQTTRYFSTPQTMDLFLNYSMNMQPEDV

Kd [1]: 14.9 µM
Kd [2]: 0.17 µM
Binder: RYCSGKSKKPV (also called cytoplasmic tail of Cx26) [Cx26 blocking peptide 5 (C-terminus)]

binding result [3]: binds
B1: Focal adhesion kinase (FAK), endogenous in breast cell lysates (enzyme)
chain: AAAYLDPNLNHTPNSSTKTHLGTGMERSPGAMERVLKVFHYFESNSEPTTWASIIRHGDATDVRGIIQKIVDSHKVKHVACYGFRLSHLRSEEVHWLHVDMGVSSVREKYELAHPPEEWKYELRIRYLPKGFLNQFTEDKPTLNFFYQQVKSDYMLEIADQVDQEIALKLGCLEIRRSYWEMRGNALEKKSNYEVLEKDVGLKRFFPKSLLDSVKAKTLRKLIQQTFRQFANLNREESILKFFEILSPVYRFDKECFKCALGSSWIISVELAIGPEEGISYLTDKGCNPTHLADFTQVQTIQYSNSEDKDRKGMLQLKIAGAPEPLTVTAPSLTIAENMADLIDGYCRLVNGTSQSFIIRPQKEGERALPSIPKLANSEKQGMRTHAVSVSETDDYAEIIDEEDTYTMPSTRDYEIQRERIELGRCIGEGQFGDVHQGIYMSPENPALAVAIKTCKNCTSDSVREKFLQEALTMRQFDHPHIVKLIGVITENPVWIIMELCTLGELRSFLQVRKYSLDLASLILYAYQLSTALAYLESKRFVHRDIAARNVLVSSNDCVKLGDFGLSRYMEDSTYYKASKGKLPIKWMAPESINFRRFTSASDVWMFGVCMWEILMHGVKPFQGVKNNDVIGRIENGERLPMPPNCPPTLYSLMTKCWAYDPSRRPRFTELKAQLSTILEEEKAQQEERMRMESRRQATVSWDSGGSDEAPPKPSRPGYPSPRSSEGFYPSPQHMVQTNHYQVSGYPGSHGITAMAGSIYPGQASLLDQTDSWNHRPQEIAMWQPNVEDSTVLDLRGIGQVLPTHLMEERLIRQQQEMEEDQRWLEKEERFLKPDVRLSRGSIDREDGSLQGPIGNQHIYQPVGKPDPAAPPKKPPRPGAPGHLGSLASLSSPADSYNEGVKLQPQEISPPPTANLDRSNDKVYENVTGLVKAVIEMSSKIQPAPPEEYVPMVKEVGLALRTLLATVDETIPLLPASTHREIEMAQKLLNSDLGELINKMKLAQQYVMTSLQQEYKKQMLTAAHALAVDAKNLLDVIDQARLKMLGQTRPH
notes: Protein from cell lysates in co-immunoprecipitation; also called total FAK
